According to patent publication EP1189630B1:

Molecular target: bovine hemoglobin (bovine) (UniProt P01966)
Assay: solid-phase ligand binding assay (ELISA), hemoglobin-coated wells; one value printed for rHA2, RgpA and Kgp

Sequence of UniProt P01966 (P01966 2-142 limits assumed, chain 1 of 2): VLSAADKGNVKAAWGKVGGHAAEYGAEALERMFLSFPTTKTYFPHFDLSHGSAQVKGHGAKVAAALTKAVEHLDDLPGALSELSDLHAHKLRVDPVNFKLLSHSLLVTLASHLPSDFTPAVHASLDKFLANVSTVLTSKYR
Sequence of UniProt P01966 (P02070 whole entry, chain 2 of 2, further chain): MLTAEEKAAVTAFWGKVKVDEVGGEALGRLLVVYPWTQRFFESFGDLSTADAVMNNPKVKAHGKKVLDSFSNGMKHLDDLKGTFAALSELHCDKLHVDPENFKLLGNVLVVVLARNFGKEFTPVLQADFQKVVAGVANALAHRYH

## polydomain Arg-gingipain RgpA isolated from P. gingivalis (ATCC 33277) (from UniProt P28784 228-991) (enzyme)
  Kd: 2.1 nM
